In patent publication US20260015399A1 (Boehringer Ingelheim, published 2026):
*1 amine or outer side, *2 acyl side, *3 side chain or, on linkers, in order; H or OH if unused. Side-chain parts run from the residue outwards. The star is where a group is joined. C18 diacid = O=C(O)CCCCCCCCCCCCCCCCC(=O)*; γGlu = O=C(O)[C@H](CCC(=O)[*:2])N[*:1]; Isovaleryl = CC(C)CC(=O)*; Ahx = NCCCCCC(=O)O

T1: human NPY2 receptor (human, UniProt P49146 1-381)
T1 construct: whole, on cells; also called hNPY2-R; hNPY2R
T1 sequence (looked up): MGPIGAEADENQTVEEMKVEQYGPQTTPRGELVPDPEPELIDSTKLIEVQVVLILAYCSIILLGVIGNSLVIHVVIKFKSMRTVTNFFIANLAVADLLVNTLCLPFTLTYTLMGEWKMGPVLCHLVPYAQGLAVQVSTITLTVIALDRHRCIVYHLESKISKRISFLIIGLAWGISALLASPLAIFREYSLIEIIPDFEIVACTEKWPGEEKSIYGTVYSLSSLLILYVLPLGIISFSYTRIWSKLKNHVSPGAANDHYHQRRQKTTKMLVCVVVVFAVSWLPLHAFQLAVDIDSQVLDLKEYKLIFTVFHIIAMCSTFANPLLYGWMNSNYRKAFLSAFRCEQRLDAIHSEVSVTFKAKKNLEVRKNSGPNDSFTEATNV


molecular target: T1, human NPY2 receptor; assay: RLB: displacement of 125I-PYY(1-36) from hNPY2R membranes
Experimental: The filtration RLB assay was carried out in 96-well plates in a final volume of 100 μl per well. Freeze-dried test peptides were dissolved in 100% dimethyl sulfoxide (DMSO) to stock solutions of 1 mM and serial dilutions were performed in assay buffer (50 mM HEPES, 5 mM MgCl₂, 1 mM CaCl₂), pH 7.4) containing 0.2% ovalbumin. […] Next, 80 μL membranes (HTS066M, ChemiSCREEN™ Human Neuropeptide Y2 Receptor Membrane Preparation, CHEMICON) were added to each well to give a final protein concentration of 0.5 μg/well. The plates were sealed and incubated at room temperature for 2 hours in a plate shaker set at 400 rpm. The incubation was stopped by vacuum filtration onto 0.5% polyethylene amine (PEI) presoaked GF/C filters using a 96-well FilterMate™ harvester (Perkin Elmer) followed by four washes with 300 μl/well ice-cold wash buffer (50 mM HEPES, 500 mM NaCl, pH7.4). Filter plates were then dried for 60 min at room temperature and the bottom of the plates was sealed with backing tape UniFilter-96. Finally, 50 μl/well scintillation counter cocktail (Microscint20, Packard) was added and the radioactivity was counted in the Packard TopCount NXT scintillation counter. IC₅₀ values (the half maximal inhibitory concentration of the agonist) were calculated by nonlinear regression analysis of sigmoidal dose-response curves.

Ki [nM] | Binder
3.39 | Isovaleryl-APEK([Ahx-γGlu-C18 diacid])PEEDSSPEELQRYYVALRHYYNWLTRQRY-NH2 (SMILES CC(C)CC(=O)N[C@@H](C)C(=O)N1CCC[C@H]1C(=O)N[C@@H](CCC(=O)O)C(=O)N[C@@H](CCCCNC(=O)CCCCCNC(=O)CC[C@H](NC(=O)CCCCCCCCCCCCCCCCC(=O)O)C(=O)O)C(=O)N1CCC[C@H]1C(=O)N[C@@H](CCC(=O)O)C(=O)N[C@@H](CCC(=O)O)C(=O)N[C@@H](CC(=O)O)C(=O)N[C@@H](CO)C(=O)N[C@@H](CO)C(=O)N1CCC[C@H]1C(=O)N[C@@H](CCC(=O)O)C(=O)N[C@@H](CCC(=O)O)C(=O)N[C@@H](CC(C)C)C(=O)N[C@@H](CCC(N)=O)C(=O)N[C@@H](CCCNC(=N)N)C(=O)N[C@@H](Cc1ccc(O)cc1)C(=O)N[C@@H](Cc1ccc(O)cc1)C(=O)N[C@H](C(=O)N[C@@H](C)C(=O)N[C@@H](CC(C)C)C(=O)N[C@@H](CCCNC(=N)N)C(=O)N[C@@H](Cc1c[nH]cn1)C(=O)N[C@@H](Cc1ccc(O)cc1)C(=O)N[C@@H](Cc1ccc(O)cc1)C(=O)N[C@@H](CC(N)=O)C(=O)N[C@@H](Cc1c[nH]c2ccccc12)C(=O)N[C@@H](CC(C)C)C(=O)N[C@H](C(=O)N[C@@H](CCCNC(=N)N)C(=O)N[C@@H](CCC(N)=O)C(=O)N[C@@H](CCCNC(=N)N)C(=O)N[C@@H](Cc1ccc(O)cc1)C(N)=O)[C@@H](C)O)C(C)C) [Compound 24]
1.36 | Isovaleryl-APEK([Ahx-γGlu-C18 diacid])PEADSSPEELQRYYVSLRHYYNWLTRQRY-NH2 (SMILES CC(C)CC(=O)N[C@@H](C)C(=O)N1CCC[C@H]1C(=O)N[C@@H](CCC(=O)O)C(=O)N[C@@H](CCCCNC(=O)CCCCCNC(=O)CC[C@H](NC(=O)CCCCCCCCCCCCCCCCC(=O)O)C(=O)O)C(=O)N1CCC[C@H]1C(=O)N[C@@H](CCC(=O)O)C(=O)N[C@@H](C)C(=O)N[C@@H](CC(=O)O)C(=O)N[C@@H](CO)C(=O)N[C@@H](CO)C(=O)N1CCC[C@H]1C(=O)N[C@@H](CCC(=O)O)C(=O)N[C@@H](CCC(=O)O)C(=O)N[C@@H](CC(C)C)C(=O)N[C@@H](CCC(N)=O)C(=O)N[C@@H](CCCNC(=N)N)C(=O)N[C@@H](Cc1ccc(O)cc1)C(=O)N[C@@H](Cc1ccc(O)cc1)C(=O)N[C@H](C(=O)N[C@@H](CO)C(=O)N[C@@H](CC(C)C)C(=O)N[C@@H](CCCNC(=N)N)C(=O)N[C@@H](Cc1c[nH]cn1)C(=O)N[C@@H](Cc1ccc(O)cc1)C(=O)N[C@@H](Cc1ccc(O)cc1)C(=O)N[C@@H](CC(N)=O)C(=O)N[C@@H](Cc1c[nH]c2ccccc12)C(=O)N[C@@H](CC(C)C)C(=O)N[C@H](C(=O)N[C@@H](CCCNC(=N)N)C(=O)N[C@@H](CCC(N)=O)C(=O)N[C@@H](CCCNC(=N)N)C(=O)N[C@@H](Cc1ccc(O)cc1)C(N)=O)[C@@H](C)O)C(C)C) [Compound 29]
10.5 | Isovaleryl-APEK([Ahx-γGlu-C18 diacid])PEEDAEPEESQRYYVSLRHYYNWLTRQRY-NH2 (SMILES CC(C)CC(=O)N[C@@H](C)C(=O)N1CCC[C@H]1C(=O)N[C@@H](CCC(=O)O)C(=O)N[C@@H](CCCCNC(=O)CCCCCNC(=O)CC[C@H](NC(=O)CCCCCCCCCCCCCCCCC(=O)O)C(=O)O)C(=O)N1CCC[C@H]1C(=O)N[C@@H](CCC(=O)O)C(=O)N[C@@H](CCC(=O)O)C(=O)N[C@@H](CC(=O)O)C(=O)N[C@@H](C)C(=O)N[C@@H](CCC(=O)O)C(=O)N1CCC[C@H]1C(=O)N[C@@H](CCC(=O)O)C(=O)N[C@@H](CCC(=O)O)C(=O)N[C@@H](CO)C(=O)N[C@@H](CCC(N)=O)C(=O)N[C@@H](CCCNC(=N)N)C(=O)N[C@@H](Cc1ccc(O)cc1)C(=O)N[C@@H](Cc1ccc(O)cc1)C(=O)N[C@H](C(=O)N[C@@H](CO)C(=O)N[C@@H](CC(C)C)C(=O)N[C@@H](CCCNC(=N)N)C(=O)N[C@@H](Cc1c[nH]cn1)C(=O)N[C@@H](Cc1ccc(O)cc1)C(=O)N[C@@H](Cc1ccc(O)cc1)C(=O)N[C@@H](CC(N)=O)C(=O)N[C@@H](Cc1c[nH]c2ccccc12)C(=O)N[C@@H](CC(C)C)C(=O)N[C@H](C(=O)N[C@@H](CCCNC(=N)N)C(=O)N[C@@H](CCC(N)=O)C(=O)N[C@@H](CCCNC(=N)N)C(=O)N[C@@H](Cc1ccc(O)cc1)C(N)=O)[C@@H](C)O)C(C)C) [Compound 27]
0.49 | Isovaleryl-APEK([Ahx-γGlu-C18 diacid])PPEDATPEEIQRYYVSLRHYYNWLTRQRY-NH2 (SMILES CC[C@H](C)[C@H](NC(=O)[C@H](CCC(=O)O)NC(=O)[C@H](CCC(=O)O)NC(=O)[C@@H]1CCCN1C(=O)[C@@H](NC(=O)[C@H](C)NC(=O)[C@H](CC(=O)O)NC(=O)[C@H](CCC(=O)O)NC(=O)[C@@H]1CCCN1C(=O)[C@@H]1CCCN1C(=O)[C@H](CCCCNC(=O)CCCCCNC(=O)CC[C@H](NC(=O)CCCCCCCCCCCCCCCCC(=O)O)C(=O)O)NC(=O)[C@H](CCC(=O)O)NC(=O)[C@@H]1CCCN1C(=O)[C@H](C)NC(=O)CC(C)C)[C@@H](C)O)C(=O)N[C@@H](CCC(N)=O)C(=O)N[C@@H](CCCNC(=N)N)C(=O)N[C@@H](Cc1ccc(O)cc1)C(=O)N[C@@H](Cc1ccc(O)cc1)C(=O)N[C@H](C(=O)N[C@@H](CO)C(=O)N[C@@H](CC(C)C)C(=O)N[C@@H](CCCNC(=N)N)C(=O)N[C@@H](Cc1c[nH]cn1)C(=O)N[C@@H](Cc1ccc(O)cc1)C(=O)N[C@@H](Cc1ccc(O)cc1)C(=O)N[C@@H](CC(N)=O)C(=O)N[C@@H](Cc1c[nH]c2ccccc12)C(=O)N[C@@H](CC(C)C)C(=O)N[C@H](C(=O)N[C@@H](CCCNC(=N)N)C(=O)N[C@@H](CCC(N)=O)C(=O)N[C@@H](CCCNC(=N)N)C(=O)N[C@@H](Cc1ccc(O)cc1)C(N)=O)[C@@H](C)O)C(C)C) [Compound 28]
1.55 | Isovaleryl-APEK([Ahx-γGlu-C18 diacid])PEADATPEELQRYYISLRHYYNWLTRQRY-NH2 (SMILES CC[C@H](C)[C@H](NC(=O)[C@H](Cc1ccc(O)cc1)NC(=O)[C@H](Cc1ccc(O)cc1)NC(=O)[C@H](CCCNC(=N)N)NC(=O)[C@H](CCC(N)=O)NC(=O)[C@H](CC(C)C)NC(=O)[C@H](CCC(=O)O)NC(=O)[C@H](CCC(=O)O)NC(=O)[C@@H]1CCCN1C(=O)[C@@H](NC(=O)[C@H](C)NC(=O)[C@H](CC(=O)O)NC(=O)[C@H](C)NC(=O)[C@H](CCC(=O)O)NC(=O)[C@@H]1CCCN1C(=O)[C@H](CCCCNC(=O)CCCCCNC(=O)CC[C@H](NC(=O)CCCCCCCCCCCCCCCCC(=O)O)C(=O)O)NC(=O)[C@H](CCC(=O)O)NC(=O)[C@@H]1CCCN1C(=O)[C@H](C)NC(=O)CC(C)C)[C@@H](C)O)C(=O)N[C@@H](CO)C(=O)N[C@@H](CC(C)C)C(=O)N[C@@H](CCCNC(=N)N)C(=O)N[C@@H](Cc1c[nH]cn1)C(=O)N[C@@H](Cc1ccc(O)cc1)C(=O)N[C@@H](Cc1ccc(O)cc1)C(=O)N[C@@H](CC(N)=O)C(=O)N[C@@H](Cc1c[nH]c2ccccc12)C(=O)N[C@@H](CC(C)C)C(=O)N[C@H](C(=O)N[C@@H](CCCNC(=N)N)C(=O)N[C@@H](CCC(N)=O)C(=O)N[C@@H](CCCNC(=N)N)C(=O)N[C@@H](Cc1ccc(O)cc1)C(N)=O)[C@@H](C)O) [Compound 25]
0.3 | Isovaleryl-APEK([Ahx-γGlu-C18 diacid])PPADATPEELQRYYVSLRHYYNWLTRQRY-NH2 (SMILES CC(C)CC(=O)N[C@@H](C)C(=O)N1CCC[C@H]1C(=O)N[C@@H](CCC(=O)O)C(=O)N[C@@H](CCCCNC(=O)CCCCCNC(=O)CC[C@H](NC(=O)CCCCCCCCCCCCCCCCC(=O)O)C(=O)O)C(=O)N1CCC[C@H]1C(=O)N1CCC[C@H]1C(=O)N[C@@H](C)C(=O)N[C@@H](CC(=O)O)C(=O)N[C@@H](C)C(=O)N[C@H](C(=O)N1CCC[C@H]1C(=O)N[C@@H](CCC(=O)O)C(=O)N[C@@H](CCC(=O)O)C(=O)N[C@@H](CC(C)C)C(=O)N[C@@H](CCC(N)=O)C(=O)N[C@@H](CCCNC(=N)N)C(=O)N[C@@H](Cc1ccc(O)cc1)C(=O)N[C@@H](Cc1ccc(O)cc1)C(=O)N[C@H](C(=O)N[C@@H](CO)C(=O)N[C@@H](CC(C)C)C(=O)N[C@@H](CCCNC(=N)N)C(=O)N[C@@H](Cc1c[nH]cn1)C(=O)N[C@@H](Cc1ccc(O)cc1)C(=O)N[C@@H](Cc1ccc(O)cc1)C(=O)N[C@@H](CC(N)=O)C(=O)N[C@@H](Cc1c[nH]c2ccccc12)C(=O)N[C@@H](CC(C)C)C(=O)N[C@H](C(=O)N[C@@H](CCCNC(=N)N)C(=O)N[C@@H](CCC(N)=O)C(=O)N[C@@H](CCCNC(=N)N)C(=O)N[C@@H](Cc1ccc(O)cc1)C(N)=O)[C@@H](C)O)C(C)C)[C@@H](C)O) [Compound 30]
